Assay results from article PMC4941734, “Structural and dynamics studies of a truncated variant of CI repressor from bacteriophage TP901-1” (Scientific Reports, 2016).

Columns and labels:
[1] = biological target: CI∆58, truncated CI repressor from bacteriophage TP901-1 (residues 1–122) (bacteriophage TP901-1) (UniProt O48503); assay: SEC; HiLoad 26/60 Superdex 75; native molecular weight estimated by comparison with globular protein standards
[2] = biological target: CI∆58, truncated CI repressor from bacteriophage TP901-1 (residues 1–122) (bacteriophage TP901-1) (UniProt O48503); assay: native MS; apo CI∆58 6 μM in 250 mM ammonium acetate, pH 6.8; nano-ESI, quadrupole time-of-flight
[3] = biological target: T1, CI∆58 (CI repressor, C-terminally truncated) (bacteriophage TP901-1 (host Lactococcus lactis)) (UniProt O48503); assay: EMSA; conditions: 0.4 nM DNA; EMSA: ~0.4-0.5 nM Cy5 DNA, binding solution of ref 3 (not given), on ice 30 min, 2% agarose, 1x TBE, 0 °C; NMR: 300 mM NaCl, 298 K; native MS: 250 mM …
T1 sequence: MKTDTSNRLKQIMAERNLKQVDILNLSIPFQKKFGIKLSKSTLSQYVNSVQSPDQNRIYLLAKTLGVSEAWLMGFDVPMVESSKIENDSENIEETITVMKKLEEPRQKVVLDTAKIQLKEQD

[4] = system: CI-NTD (bacteriophage TP901-1 (host Lactococcus lactis)); assay: EMSA; conditions: 0.4 nM DNA; EMSA: ~0.4-0.5 nM Cy5 DNA, binding solution of ref 3 (not given), on ice 30 min, 2% agarose, 1x TBE, 0 °C; NMR: 300 mM NaCl, 298 K; native MS: 250 mM …
[5] = biological target: the molecule itself; assay: SEC; HiLoad 26/60 Superdex 75; native molecular weight estimated by comparison with globular protein standards

Molecule: CI∆58, truncated CI repressor from bacteriophage TP901-1 (residues 1–122) (from UniProt O48503 1-122) (domain or fragment)
- stoichiometry N [1]: 2
- stoichiometry N [2]: 2

Molecule: P5 fragment containing OL
- Kd [3]: 3 nM
- Kd [4]: 1100 nM

B1: CI-CTD1, synthetic peptide of the dimerization region of CI repressor from bacteriophage TP901-1 (residues 90–125) (peptide)
peptide: ENIEETITVMKKLEEPRQKVVLDTAKIQLKEQDEQ
notes: CI repressor of Lactococcus lactis bacteriophage TP901-1, dimerization region CTD1; printed as residues 90-125 and as a 35 residues peptide; Delivered as a lyophilized chloride salt, purity 98.45%; solubilised at pH 12 and brought back to pH 7.5; source: synthetic peptide, bought: CASLO
- stoichiometry N [5]: 4
